# Data taken from the DeepSol protein solubility set.
# Assay: soluble on expression in E. coli; label from the status in PepcDB or PDB records
row,Sequence,soluble on expression in E. coli
1,MKSTFSVLFFVKKDKQKINGSYPIFVRITIDGVASRFNSKLDVQPKLWDGKAGKAAGRSAEATRINRLLDDINASLNTIYHELQRRDNYVTAEKVKNEFLGHSENHDTILNLFQKHNDDVKQLVGISKTIATYRKYEVTRRHLAEFIQSKYNLSDISIKEITPMFITDFELYLRTTCKCGYNTTAKFMQFFKRIILIARNNGILIGDPFANYKIRLEKVDRGYLTEDEIKIILKKKMVSERLEQVRDVFIFSCFSGLAYVDVANLKEDNIRKSFDGNLWIITKRQKTNTDVNVPLLDIPKMILEKYKGKLPNGKVLPIISNQK,not soluble
2,MKSVFVESTIFEKYRDEYLSDEEYRLFQAELMLNPKLGDVIQGTGGLRKIRVASKGKGKRGGSRIIYYFLDEKRRFYLLTIYGKNEMSDLNANQRKQLMAFMEAWRNEQS,not soluble
3,MKTAEAAKGRWPEILEHFDLPPITGKNHYRGECPVCGARGKFRIDDRDGAGTWICVCGSGDGMKLVTLTQGKPFNEICTEIDRLIGNDYQRVKIPVNSSATSLRKRVLSKFSKLEALRGTSGAAYLNSRGIFNLPAEAIRFNARQRHNGCVFQSLYSLATDDKGELCYLHQTLLDGAKKADIGSSSKRLKSLQEDNYLDHARSVAIRMFPVASTLGIAEGIETALSAHQIYKVNTWATINSGFMKKFRVPAGVLHLIIFADRDENSATGLAAAYECAHANLMAKNDLQRVSVYWPDHGDFNNMLMNGDQVRELVFHKKKVAA,not soluble
4,MKTEEMKFINESEFKKLKHYFEQKNTTSSLVLLVALTTGGRFSEIAKLKREDLDIKNNKIHLRGTKTETSDRIISIDTVTMKRIQSFIDSRPTNISGYIFTVDGKTITNAAVNKVLRKACANLNIKEITIHSLRHSFCSILIHHGFSILYISKHLGHSNPATTQSIYSHLLQETYEREDELEHHHHHH,not soluble
5,MKTGDKAGAIAAAQYFVEVIEYSMHTSTTDLLEKYSYEHCDRCSHYIEVINTRQEKNVLPKSVVINSSQEGHPEFRGEGAIIWRVPMHLQISEQWEAGKEPRKEEVKVSFSVAIDNGHWVLVGVGEED,not soluble
6,MKTGDKQFAVIGLGRFGLAVCKELQDSGSQVLAVDINEDRVKEAAGFVSQAIVANCTHEETVAELKLDDYDMVMIAIGADVNASILATLIAKEAGVKSVWVKANDRFQARVLQKIGADHIIMPERDMGIRVARKMLDKRVLEFHPLGSGLAMTEFVVGSRLMGKTLSDLALCKVEGVQVLGFKRGPEIIKAPDMSTTLEIGDLIIVVGPQDKLANKLKSLLEHHHHHH,not soluble
7,MKTICVFAGSNPGGNEAYKRKAAELGVYMAEQGIGLVYGGSRVGLMGTIADAIMENGGTAIGVMPSGLFSGEVVHQNLTELIEVNGMHERKAKMSELADGFISMPGGFGTYEELFEVLCWAQIGIHQKPIGLYNVNGYFEPMMKMVKYSIQEGFSNESHLKLIHSSSRPDELIEQMQNYSYPILEKKWTEI,soluble
8,MKTKTDFLKMKEQGEPITMLTAYDYPSAKLAEEAEVDMILVGDSLGMVVLGYDSTVPVTVEDMIHHTKAVRRGAKETFIVTDMPFMSYHVSLQDTMVNARRIVQESGAHALKVEGAGEVISTIHYLTNAGIPVVAHLGLTPQSVGVLGGYKVQGKDAESAKKLIEDAKKCEEAGAIALVLECVPMQLAELISEQLTIPTIGIGAGQKVDGQVLVYHDLISYGVNRVPKFVKQYTSVQEEIVRGISQYVAEVKTRQFPEEKHSFTMKEEECLALYGGKQS,not soluble
9,MKTLGEFIVEKQHEFSHATGELTALLSAIKLGAKIIHRDINKAGLVDILGASGAENVQGEVQQKLDLFANEKLKAALKARDIVAGIASEEEDEIVVFEGCEHAKYVVLMDPLDGSSNIDVNVSVGTIFSIYRRVTPVGTPVTEEDFLQPGNKQVAAGYVVYGSSTMLVYTTGCGVHAFTYDPSLGVFCLCQERMRFPEKGKTYSINEGNYIKFPNGVKKYIKFCQEEDKSTNRPYTSRYIGSLVADFHRNLLKGGIYLYPSTASHPDGKLRLLYECNPMAFLAEQAGGKASDGKERILDIIPETLHQRRSFFVGNDHMVEDVERFIREFPDA,soluble
10,MKTLHLTFIAKSSKRSHFWLELVWLNNQKKILFCGAGHCKMSPHIIATVTIDDEHHHHHHRSNENYSPSSQDMDSPKPKGRILYCRKCEGHGEKVILKNHSPQCPYILCNCKSCEKLNYKRLKSFNKRNKEKIELAAALNAKRHAPESGSSVDDEEGFSRRSSFCSKTSTPDMDSETRTSSTTPITRSNSTMPTANGLEGRSGSLGHMTVMSYDIWKAKCASERKRLEEERLTKPELFTRSPSPGPMRKRAHTFVAPPTIHTPDIPVVAAKKMSLDEKVKGKFITLPTIPAMRIFVNEEDEDVKPVTQMQLAQPIALTPSPQMSLASTLAQIPMSTPVCMPSMITPTSFLDIPSTSSPMLPFQISTTTSPMLQRQTPILTPQMSPFKPVGVATPQPPALSNLSAGQELSSFILHSVVLQAQQAQQKTAQQLIPTSMPSELESTLSLLRLQQSSLGDLIKLSGIQLPTLPTTQPMLTPQMPTLPMMQKALPTVLPGSFQPFLQPTLFTNPV,not soluble
11,MKTRDRILECSLLLFNEQGEPNVSTLEIANELGISPGNLYYHFHGKEPLVMALFERFQAELAPLLDPPEEVRLGAEDYWLFLHLIVERLAHYRFLFQDLSNLTGRLPRLARGIRTWLGALKRTLATLLARLKADRQLRSDAPALGQLVEQITLTLLFSLDYQRVLGSKGEVRTVVYQIMMLVAPHLRSEAQRSAESLAQRYLGPE,not soluble
12,MKTSETTRPTLSSLPVGKRAEEGTPHNLFTVIGLDDSPSPYLSPSVKALIDQGCVFSGGVRHHDIVAPLLPAGAKWIDITVPLDQVFARYAGHPHIIVFASGDPIFFGFANTIRRRLPDAEIRLYPSFNSLQTLAHRLVMPYDDMRTISLTGRPWHGFDRALIERTPKMGILTDREHTPATIASRMLDYGYNDYTMYIGEHLGHPTKELIRRMTLEEAAAETFEYPNCLILTTGDGLQSVNGGILSPRFFGIPDEAFELLDGRARMITKAPIRLLTLSALELNRRTSFWDIGFCTGSVSIEARLQFPHLHVTSFEIRPEGKRLMEINSRRFGTPGITTVIGDFLETDTAIYPCPDAVFIGGHGGRLKEIISRVRHKLLPGARIVFNSVSEESKTHFIEAANESGLCFLGGTRVAINEYNPIEILVASAPDSPYL,not soluble
13,MKTSPRRPLILKRRRLPLPVQNAPSETSEEEPKRSPAQQESNQAEASKEVAESNSCKFPAGIKIINHPTMPNTQVVAIPNNANIHSIITALTAKGKESGSSGPNKFILISCGGAPTQPPGLRPQTQTSYDAKRTEVTLETLGPKPAARDVNLPRPPGALCEQKRETCADGEAAGCTINNSLSNIQWLRKMSSDGLGSRSIKQEMEEKENCHLEQRQVKVEEPSRPSASWQNSVSERPPYSYMAMIQFAINSTERKRMTLKDIYTWIEDHFPYFKHIAKPGWKNSIRHNLSLHDMFVRETSANGKVSFWTIHPSANRYLTLDQVFKQQKRPNPELRRNMTIKTELPLGARRKMKPLLPRVSSYLVPIQFPVNQSLVLQPSVKVPLPLAASLMSSELARHSKRVRIAPKVLLAEEGIAPLSSAGPGKEEKLLFGEGFSPLLPVQTIKEEEIQPGEEMPHLARPIKVESPPLEEWPSPAPSFKEESSHSWEDSSQSPTPRPKKSYSGLRSPTRCVSEMLVIQHRERRERSRSRRKQHLLPPCVDEPELLFSEGPSTSRWAAELPFPADSSDPASQLSYSQEVGGPFKTPIKETLPISSTPSKSVLPRTPESWRLTPPAKVGGLDFSPVQTPQGASDPLPDPLGLMDLSTTPLQSAPPLESPQRLLSSEPLDLISVPFGNSSPSDIDVPKPGSPEPQVSGLAANRSLTEGLVLDTMNDSLSKILLDISFPGLDEDPLGPDNINWSQFIPELQ,soluble
14,MKTTLIKVIAASVTALFLSMQVYASGHTAHVDEAVKHAEEAVAHGKEGHTDQLLEHAKESLTHAKAASEAGGNTHVGHGIKHLEDAIKHGEEGHVGVATKHAQEAIEHLRASEHKSH,not soluble
15,MKTTPIPLRRDIILDGKWCAAMLKELESLYEGDIVINGQPEHPEDYEWFYTADGDEIGIAKHRLTEQERRLLALFFTPAERRREPESEEERAWKRWMATGDPAALARLAAPYCRFIHFTASRPIANKEEFADAVRGLFSSPVAIVWEQDRRGLIVEAKQKRTTEPPSLADMAEALAADFYTALHLLIGPIRSVDERLYESFLLEKECFSAARRFWPKRTVYEWEDVIPLPLFEEGAVSEKARRTLSFLDGFDEEEVRAMETFLQCNLNVSMAAKKLYMHRNSLQYRIDKWAEQTGVDIKRFKGAAAVYLAILHRRRS,not soluble
16,MKTVSQLIDMKQKQTKISMVTAYDFPSAKQVEAAGIDMILVGDSLGMTVLGYESTVQVTLADMIHHGRAVRRGAPNTFVVVDMPIGAVGISMTQDLNHALKLYQETNANAIKAEGAHITPFIEKATAIGIPVVAHLGLTPQSVGVMGYKLQGATKEAAEQLILDAKNVEQAGAVALVLEAIPNDLAEEISKHLTIPVIGIGAGKGTDGQVLVYHDMLNYGVEHKAKFVKQFADFSVGVDGLKQYDQEVKSGAFPSEEYTYKKKIMNEVNNNDLEHHHHHH,soluble
17,MKVDGIQAEMRAMMVEATNTTPTGTGAKVGADFNDLLTKAINNVNSLQKSSGDLQTRFDRGDADVSLSDVMIARNKSSVAFEATVQIRNKLVEAYKDLMNMPV,not soluble
18,MKVEGRCHCGAIAYEAEVEPGTITVCHCADCQMQSGSVFRANISAPADTFVLLQGTPKEYLKIAASGARRMHAFCGNCGGPIYSCAAENPQSYSLRVGALEQRHALGRPLRQIWARRRFSWLSSLGDVEEFDGQP,not soluble
19,MKVFLYDTNLILASRVRSLLSSQGFEISDKEEACAGVVNLESPKGLEVVKELKEKGKKVVGYCGHKNVPLIQKAKELGVDEVIPNSQVVTSLGEILKKLCS,not soluble
20,MKVGVVGTGFVGSTAAFALVLRGSCSELVLVDRDEDRAQAEAEDIAHAAPVSHGTRVWHGGHSELADAQVVILTAGANQKPGESRLDLLEKNADIFRELVPQITRAAPDAVLLVTSNPVDLLTDLATQLAPGQPVIGSGTVLDSARFRHLMAQHAGVDGTHAHGYVLGEHGDSEVLAWSSAMVAGMPVADFMQAQNLPWNEQVRAKIDEGTRNAAASIIEGKRATYYGIGAALARITEAVLRDRRAVLTVSAPTPEYGVSLSLPRVVGRQGVLSTLHPKLTGDEQQKLEQSAGVLRGFKQQLGL,soluble
21,MKVISLKKDSFNKGGAVITLLPEDKEDLFTVYQIVDKDDELIFKKKFTSKLDEAGKKKSTDLVKLKIKVISEDFDMKDEYLKYKGVTVTDESGASNVDIPVGKYLSFTLDYVYPFTIIKQNFNKFMQKLLNEACNIEYKSDTAAVVLQEGIAHVCLVTSSSTILKQKIEYSMPKKKRTTDVLKFDEKTEKFYKAIYSAMKKDLNFDKLKTIILCSPGFYAKILMDKIFQYAEEEHNKKILDNKGMFFIAHCSTGYLQGINEVLKNPLYASKLQDTKYSKEIMVMDEFLLHLNKDDDKAWYGEKEVVKAAEYGAISYLLLTDKVLHSDNIAQREEYLKLMDSVESNGGKALVLSTLHSLGEELDQLTGIACILKYPLPDLDEDDGEE,soluble
22,MKVLAIDTSNYVMGVSLIEEGNVIGEIITNLTKNHSVRLMPAVEQLLKECGVKPKELTKIVVAAGPGSYTGVRIGVTAAKTLAWSLQIPIVGVSSLEVVAANGANFNGLISPLFDGRRGQIYTGLYTYEGEDLTSIEEDRIILIVDWLQMLKDKGKPVLFIGNDVKLHKETIIEHLGDQAVFAPVTKNNPRPSELAFLGLQKEEQDVHSFVPSYLRLAEAETKWLESQNK,not soluble
23,MKVMNIIHDSVVDGEGLRTVVFFAGCPHRCFGCHNPKSWNICNGTEMTVEEIVKEIASNPLTDVTFSGGDPFFQAAEVKKVAKAVKDLKKNLWMYTGYTLEEIQSSQNNDMIELLHYGDVLVDGRFEIGKKDLTLPFRGSSNQRIIRLKELEHHHHHH,soluble
